# According to patent US20260167721A1 (ABLEXIS, published 2026):
# Changes are numbered by the printed parent chain.
# B1: ABL-CD3-68 (antibody, V domains shown)
# VH: EVQLVESGGGLVKPGGSLRLSCAASGFTFSSSIMNWVRQAPGKGLEWVSSISGSSSYIYYADSVKGRFTISRDNAKNSQYLQMKSLRAEDTAVYYCARERWNLLYFDYWGQGTLVTVSS
# VL: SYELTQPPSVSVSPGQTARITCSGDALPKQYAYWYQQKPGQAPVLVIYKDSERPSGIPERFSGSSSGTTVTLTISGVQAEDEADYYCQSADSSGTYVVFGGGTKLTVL
# notes: mAb purified from hybridoma; chimeric AlivaMab IgG (human VH, CH1 and upper hinge; mouse middle hinge, CH2, CH3; human light chain)
# B2: ABL-CD3-79 (antibody, V domains shown)
# VH: B1 VH with F29V, S31N, S32Y, I33S, S50C, G53R, Q79L, Y80F, K84N, N102E
# VL: QTVVTQEPSFSVSPGGTVTLTCGLSSGSVSTSYYPSWYQQTPGQAPRTLIYSTNTRSSGVPDRFSGSILGNKAALTITGAQADDESDYYCVLYMGSGIWVFGGGTKLTVL
# notes: as for B1
# B3: ABL-CD3-77 (antibody, V domains shown)
# VH: EVQLVESGGGLVKPGGSLRLSCAASGFTFSSYSMNWVRQAPGKGLEWVSSISSSSSYIYYADSVKGRFTISRDNAKNSLYLQMNSLRAEDTAVYYCARDGELGIGTYFDYWGQGTLVTVSS
# VL: QSVLTQPPSVSGAPGQRVTISCTGSSSNIGAGYDVHWYQQLPGTAPKLLIYGNSNRPSGVPDRFSGSKSGTSASLAITGLQAEDEADYYCQSYDSSLSGSVFGGGTKLTVL
# notes: as for B1
# B4: ABL-CD3-71 (antibody, V domains shown)
# VH: QVQLQESGPGLVKPSETLSLTCTVSGGSINSYYWSWIRQPAGKGLEWIGRIYTSGSTNYNPSLKSRVTMSVDTSKKQFSLKLSSVTAADTAVYYCARERISRLYFDYWGQGILVTVSS
# VL: NFMLTQPHSVSESPGKTVTISCTRSSGSIASNYVQWYQQRPGSSPTTVIYEDNQRPSGVPDRFSGSIDSSSNSASLTISGLKTEDEADYYCQSYDRSNRVFGGGTKLTVL
# notes: as for B1
# B5: ABL-CD3-70 (antibody, V domains shown)
# VH: B1 VH with S31T, S32Y, S52T, G53S, Q79L, K84N, R100K, N102E, Y105F
# VL: B4 VL with R96S
# notes: as for B1
# B6: ABL-CD3-73 (antibody, V domains shown)
# VH: EVQLVESGGGLVKPGGSLRLSCAASGFTITSYSMNWVRQAPGKGLEWVSTFSRSSTYIYYADSVKGRFTISRDNAKNSLYLQMNSLRAEDTAVYYCAREKWDLLYFDYWGQGTLVTVSS
# VL: B4 VL with Q54R, R96N, K106T
# notes: as for B1
# B7: ABL-CD3-85 (antibody, V domains shown)
# VH: EVQLVESGGGLVKPGGSLRLSCAASGFTFSSYSMNWVRQAPGKGLEWVSSISRRSGYIYYADSVKGRFTLSRDNAKKSLYLQMNSLRAEDTAVYYCARDLNWAFDYWGQGTLVTVSS
# VL: B4 VL with Q54H, S79A, Y94C, R96S, R99V
# notes: as for B1
# B8: ABL-CD3-81 (antibody, V domains shown)
# VH: QVQLQESGPGLVKPSQTLSLTCTVSGGSISSGGYYWSWIRQHPGKGLEWIGYIYYSGSTYYNPSLKSRVTISVDTSKDQFSLKLSSVTAADTAVYYCARERKTSLPFDIWGQGTMVTVSS
# VL: B4 VL with D88Y, Y94F, R96S
# notes: as for B1
# B9: ABL-CD3-83 (antibody, V domains shown)
# VH: B7 VH with S50T, R54S, S55G, Y60D, L70I, K77N, L100F, A103T, Y106N
# VL: B4 VL with Y94S, R99V
# notes: as for B1
# B10: ABL-CD3-69 (antibody, V domains shown)
# VH: EVQLVESGGGLVKPGGSLRLSCAASGFTFSTYTMNWVRQAPGKGLEWVSTITSSSRYIYYADSVKGRFTISRDNAKNSLYLQMNSLRAEDTAVYYCARVTFDAFDIWGQGTMVTVSS
# VL: B4 VL with R96S
# notes: as for B1
# B11: ABL-CD3-72 (antibody, V domains shown)
# VH: EVQLVESGGGLVKPGGSLRLSCAASGFTFSTYIMNWVRQAPGKGLEWVSSISSSRSYIYYADSVKGRFTISRDNAKNSLYLQMNSLRAEDTAVYYCAREDRYRLFFDYWGQGTLVTVSS
# VL: B4 VL with R96S
# notes: as for B1
# B12: ABL-CD3-67 (antibody, V domains shown)
# VH: B1 VH with F29V, S32Y, I33S, G53R, Q79L, Y80F, K84N, N102E
# VL: B4 VL with Q38R, S66A, N72T, R96S
# notes: as for B1
# B13: ABL-CD3-84 (antibody, V domains shown)
# VH: B1 VH with S31N, S32F, S56N, R72G, Q79L, K84N, R100K, N102V, Y105F
# VL: B4 VL with V48M, N53T, R96S
# notes: as for B1
# B14: ABL-CD3-78 (antibody, V domains shown)
# VH: B6 VH with I29V, T30S, S31N, T50C, F51I, T56S, Y80F, K100R, D102E
# VL: B4 VL with Y94F, R96G
# notes: as for B1
# B15: ABL-CD3-74 (antibody, V domains shown)
# VH: EVQLVESGGGLVKPGGSLRLSCAASGFTFSSYSMKWVRQAPGKGLEWVSSISSSSSYIYYADSVKGRFTISRDNAKNSLYLQMNSLRAEDTAVYYCARDRGELTLWYWGQGTLVTVSS
# VL: SYELTQPPSVSVSPGQTARITCSGDALPKKYAYWYQQKSGQAPVLVIYEDSKRPSGIPERFSGSSSGTMATLTISGAQVEDEADYYCYSTDSSGNHWVFGGGTKLTVL
# notes: as for B1
# B16: ABL-CD3-82 (antibody, V domains shown)
# VH: B15 VH with K35N, G101R, T104L, W106D
# VL: SYELTQPPSVSVSPGQTARITCSGDALPKKYAYWYQQKSGQAPVLVIYEDSKRPSGIPERFSGSSSGTMATLTISGAQVEDEADYYCYSTDSSGNHSWVFGGGTKLTVL
# notes: as for B1
# B17: ABL-CD3-80 (antibody, V domains shown)
# VH: EVQLVESGGGLVKPGGSLRLSCAASGFTFSGYSMNWVRQAPGKGLEWVSSISSRSRYIYYADSVQGRFTISRDNSKNSLFLQMNSLRAEDTAVYYCGRDWRELLLDYWGQGTLVTVSS
# VL: B16 VL
# notes: as for B1
# B18: ABL-CD3-75 (antibody, V domains shown)
# VH: B15 VH with S31T, M34L, K35N, S53V, S56R, Y60F, G101R, T104L, W106D
# VL: B16 VL with S97N
# notes: as for B1
# B19: ABL-CD3-76 (antibody, V domains shown)
# VH: B15 VH with S31N, S33Y, K35N, W47R, S56N, G101R, T104P, W106D, L113V
# VL: B15 VL
# notes: as for B1
# Tests used:
# [1] = biological target: T1, recombinant human CD3 epsilon/gamma heterodimer (human, UniProt P07766 23-126; P09693 23-116); test: BLI (Octet), mAb 5 ug/mL on FAB2G sensor, hCD3 E/G 200-50 nM;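 note: antibodies purified from hybridoma supernatants, measured by Octet binding to recombinant human CD3 protein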
# T1 construct: Recombinant heterodimer used as analyte in Octet; also called hCD3 E/G
# T1 sequence (P07766 23-126, chain 1 of 2): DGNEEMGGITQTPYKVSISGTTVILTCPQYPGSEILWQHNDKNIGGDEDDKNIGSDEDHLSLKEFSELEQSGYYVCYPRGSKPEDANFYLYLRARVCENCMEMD
# T1 sequence (P09693 23-116, chain 2 of 2): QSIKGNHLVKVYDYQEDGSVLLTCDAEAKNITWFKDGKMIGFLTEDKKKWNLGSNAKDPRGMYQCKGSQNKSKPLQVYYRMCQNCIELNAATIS
# Description: (§1) Samples were evaluated by flow cytometry analysis against Jurkat and human Pan-T cells (FIG. 1B) as well as by Octet against recombinant human CD3 proteins to evaluate apparent affinities and binding off-rates (Table 6, infra).
# [2] = biological target: T2, recombinant human CD3 epsilon/delta heterodimer (human, UniProt P07766 23-126; P04234 22-105); test: BLI (Octet), mAb 5 ug/mL on FAB2G sensor, hCD3 E/D 200-50 nM
# T2 construct: Recombinant heterodimer used as analyte in Octet; also called hCD3 E/D; human CD3E/D
# T2 sequence (P07766 23-126, stated change not applied, chain 1 of 2): as the sequence (P07766 23-126, chain 1 of 2) above
# T2 sequence (P04234 22-105, stated change not applied, chain 2 of 2): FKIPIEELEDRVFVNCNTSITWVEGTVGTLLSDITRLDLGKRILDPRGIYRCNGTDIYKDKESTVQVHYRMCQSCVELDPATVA
# Description: as §1
Binder,Kd [1] [nM],Response [1],koff [1] [s⁻¹],kon [1] [M⁻¹ s⁻¹],Kd [2] [nM],Response [2],koff [2] [s⁻¹],kon [2] [M⁻¹ s⁻¹]
B1,6.43,0.28,0.00157,244000,4.2,0.3,0.000973,232000
B2,412,0.07,0.162,393000,120,0.22,0.0473,393000
B3,< 0.001,-0.01,< 1e-07,50000,< 0.001,0.01,0.0135,–
B4,55,0.11,0.0329,598000,58.8,0.48,0.0102,173000
B5,4.87,0.11,0.00339,697000,47.1,0.26,0.0101,214000
B6,6.12,0.99,0.000472,77000,1.26,1.02,0.0001,79700
B7,29.8,0.64,0.00608,204000,27.9,0.042,0.00689,247000
B8,912,0.04,0.692,759000,283,0.17,0.107,378000
B9,37.6,0.01,0.00649,173000,22,0.03,0.00882,401000
B10,3.73,0.88,0.000321,86100,8.14,0.87,0.000851,105000
B11,442,0.09,0.211,476000,109,0.17,0.07,641000
B12,109,0.26,0.0178,163000,53.3,0.58,0.00485,90800
B13,145,0.1,0.0614,424000,143,0.22,0.0203,142000
B14,21.4,0.5,0.00157,73500,6.64,0.56,0.000568,85600
B15,124,0.13,0.0609,492000,55.6,0.24,0.026,467000
B16,3.18,0.02,0.00197,620000,10.6,0.02,0.00192,182000
B17,148,0.11,0.036,243000,125,0.36,0.0108,86200
B18,159,0.19,0.0593,373000,29.6,0.56,0.00726,245000
B19,134,0.24,0.0461,345000,48.2,0.53,0.0125,260000
